Assay results: US20080050387A1, “Non-Androgen Dependent Roles for Androgen Receptor and Non-Androgen Related Inhibitors of Androgen Receptor” (priority 2003, published 2008)

Target: T1, ARN (Homo sapiens, UniProt P10275)
T1 construct: The AR has a large N-terminus (ARN); expressed in transfected cells; host or cells: H1299
T1 sequence (P10275 1-559 limits assumed): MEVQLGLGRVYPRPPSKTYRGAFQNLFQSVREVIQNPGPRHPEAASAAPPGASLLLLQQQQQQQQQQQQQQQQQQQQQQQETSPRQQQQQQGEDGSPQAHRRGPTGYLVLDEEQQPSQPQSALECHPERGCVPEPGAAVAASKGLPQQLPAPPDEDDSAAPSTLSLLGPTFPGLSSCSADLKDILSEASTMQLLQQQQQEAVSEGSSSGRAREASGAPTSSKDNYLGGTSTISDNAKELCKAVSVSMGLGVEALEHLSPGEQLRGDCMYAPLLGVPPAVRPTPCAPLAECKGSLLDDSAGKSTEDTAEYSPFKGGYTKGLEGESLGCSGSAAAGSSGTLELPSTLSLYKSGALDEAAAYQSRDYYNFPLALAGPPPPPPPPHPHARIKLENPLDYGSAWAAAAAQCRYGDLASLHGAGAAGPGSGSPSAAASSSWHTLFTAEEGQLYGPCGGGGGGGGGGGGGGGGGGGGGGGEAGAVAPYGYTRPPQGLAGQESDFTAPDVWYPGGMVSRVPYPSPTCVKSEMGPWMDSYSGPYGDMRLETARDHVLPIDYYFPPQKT
T1 sequence (Q92624 1-585 partner): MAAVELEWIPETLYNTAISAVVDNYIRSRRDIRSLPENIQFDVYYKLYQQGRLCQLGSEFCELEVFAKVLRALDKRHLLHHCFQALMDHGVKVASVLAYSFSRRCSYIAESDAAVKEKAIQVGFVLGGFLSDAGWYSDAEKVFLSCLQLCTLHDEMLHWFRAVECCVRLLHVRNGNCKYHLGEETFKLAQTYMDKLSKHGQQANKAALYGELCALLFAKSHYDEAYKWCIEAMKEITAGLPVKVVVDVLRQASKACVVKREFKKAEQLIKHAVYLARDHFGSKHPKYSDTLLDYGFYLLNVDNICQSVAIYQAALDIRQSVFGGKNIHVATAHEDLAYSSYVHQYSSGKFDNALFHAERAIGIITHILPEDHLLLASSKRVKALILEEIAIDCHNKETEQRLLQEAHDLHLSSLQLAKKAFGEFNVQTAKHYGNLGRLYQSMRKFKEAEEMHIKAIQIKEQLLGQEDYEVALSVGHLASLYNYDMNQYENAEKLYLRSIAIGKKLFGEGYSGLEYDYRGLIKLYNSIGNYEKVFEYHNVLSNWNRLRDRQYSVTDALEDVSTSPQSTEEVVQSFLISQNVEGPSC
Experiment: Mammalian two-hybrid assay ARA67 / ARN in H1299 cells
Format: cell-based
Conditions: pM-ARA67 and pVP16-ARN, pG5-Luc
Method: H1299 and COS-1 cells were maintained in Dulbecco's modified Eagle's medium (DMEM) (Life Technologies, Inc.) supplemented with 10% heat inactivated fetal bovine serum (FBS). LNCap cells were maintained in RPMI 1640 supplemented with […]. All media contain 100 units penicillin, 100 μg/ml streptomycin and 2 mM L-glutamine. Cells were seeded to a density of 50-60% confluency for transfection. In transfections where H1299 and COS-1 cells were used, the calcium phosphate precipitation method was used as described (Pan H J, et al. 1999. Endocrine 11:321-327) unless otherwise noted. […] In other reporter gene assays, where ligand treatment was required, cell culture media were changed to DMEM containing 10% charcoal-dextran-stripped FBS (CD-FBS) 2 h before transfection. After 16-18 h transfection, cells were treated with medium containing either vehicle or ligands for another 20-24 h and then cells were harvested. With LNCap cells transfection, the cells were treated with fresh RPMI 1640 containing 10% CD-FBS before transfection with SuperFect performed according to the manufacturer's protocol (Qiagen). After transfection, cells were allowed to recover in fresh RPMI 1640 containing 10% CD-FBS for 8-12 h, and then treated with either vehicle or ligands for another 20-24 h before harvesting. Each experiment was repeated at least three times.

B1: ARA67: AR N-terminal interacting protein of 585 amino acids (SEQ ID NO:1), matches PAT1; functions as a repressor of AR (protein)
chain: T1 sequence (Q92624 1-585 partner)
**Q.** B1 was tested. Which “reporter luciferase activity (association with ARN)” value did it give?
**A.** The value was “highly induced”.
